T1: Human IL-11 (human, UniProt P20809 22-199)
T1 sequence: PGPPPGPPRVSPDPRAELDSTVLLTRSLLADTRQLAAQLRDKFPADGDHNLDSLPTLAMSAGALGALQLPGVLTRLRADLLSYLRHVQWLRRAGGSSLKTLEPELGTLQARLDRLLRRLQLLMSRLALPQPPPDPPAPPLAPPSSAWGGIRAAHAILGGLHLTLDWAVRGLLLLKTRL

T2: Mouse IL-11 (mouse, UniProt P47873 22-199, limits assumed)
T2 construct: also called murine IL-11; recombinant murine IL-11
T2 sequence (looked up): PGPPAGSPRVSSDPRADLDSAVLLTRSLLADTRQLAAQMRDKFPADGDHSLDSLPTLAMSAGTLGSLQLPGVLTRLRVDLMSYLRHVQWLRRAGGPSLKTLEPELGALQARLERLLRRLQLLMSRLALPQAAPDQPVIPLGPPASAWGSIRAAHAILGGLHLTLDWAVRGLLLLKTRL


Key:
Human IL-11 [1] = target: T1, Human IL-11; assay: cell-based or functional assay
Human IL-11 [2] = target: T1, Human IL-11; assay: ELISA
Experimental: (§1) The soluble scFv were produced by recombinant expression in E. coli, and analysed for their ability to bind to human IL-11 and murine IL-11 by ELISA. Briefly, the respective antigen was coated to wells of an ELISA plate, the cell culture supernatant containing the respective scFv was added at a 1:2 dilution, and binding was detected.

Mouse IL-11 = target: T2, Mouse IL-11; assay: ELISA
Experimental: as §1

Human IL-11 [3] = target: T1, Human IL-11; assay: ELISA on coated recombinant human IL-11 (100 ng/well), scFv-Fc
Experimental: The light chain shuffled anti-IL-11 antibodies were analysed to determine the EC50 for binding to human IL-11 by ELISA according to standard methods. Briefly, wells of microtiter plates were coated with recombinant human IL-11 (100 ng/well), scFv-Fc comprising the VH and VL domains of the clones were added in a dilution series and antibody binding was detected using a polyclonal antibody detection system.

Row | Binder | MMP2 production, Experiment 1 (human atrial fibroblasts + TGFB1) (Human IL-11 [1]) | MMP2 production, Experiment 2 (human atrial fibroblasts + TGFB1) (Human IL-11 [1]) | hIL11 - average signal (Human IL-11 [2]) | mIL11 - average signal (Mouse IL-11) | EC50 (Human IL-11 [3])
1 | YU100-E11 (antibody) QVQLVESGGGVVQPGRSLRLSCAASGFTFSSYGMHWVRQAPGKGLEWVAVISYDGSNKYYADSVKGRFTISRDNSKNTLYLQMNSLRAEDTAVYYCARIMGYDYGDYDVVDYWGQGTLVTVSSGSASAPKLEEGEFSEARVQSALTQPRSVSGSPGQSVTISCTGTSSDVGGYNYVSWYQQHPGKAPKLMIYDVSKRPSGVPDRFSGSKSGNTASLTISGLQAEDEADYYCCSYAGSYTWVFGGGTKLTVL | 49.1 ng/mL | 41.9 ng/mL | 0.268 | 0.435 | 0.028 µg/mL
2 | YU100-E12 (antibody) QVQLVESGGGVVQPGRSLRLSCAASGFTFSSYGMHWVRQAPGKGLEWVAVISYDGSNKYYADSVKGRFTISRDNSKNTLYLQMNSLRAEDTAVYYCAKIGATDPLDYWGQGTLVTVSSGSASAPKLEEGEFSEARVQSALTQPASVSGSPGQSITISCTGTSSDVGGYNYVSWYQQHPGTAPKLMIYDVSNRPSGVSNRFSGSKSGNTASLTISGLQAEDEADYYCSSYTSSTTWVFGGGTKLTVL | 56 ng/mL | 47.9 ng/mL | 0.426 | 0.5 | 0.016 µg/mL
3 | YU100-F01 (antibody) QVQLVQSGGGVVQPGRSLRLSCAASGFTFSSYGMHWVRQAPGKGLEWVAVISYDGSNKYYADSVKGRFTISRDNSKNTLYLQMNSLRAEDTAVYYCAKIGATDPLDYWGQGTLVTVSSGSASAPKLEEGEFSEARVQSALTQPASVSGSPGQSITISCTGTGSDVGAYDYVSWYQQHPGKAPKLMIYDVNNRPSGVSNRFSGSKSGNTASLTISGLQAEDEAEYYCSSFATSISWVFGGGTRLTVL | 52.8 ng/mL | 39.9 ng/mL | 0.464 | 0.528 | 0.018 µg/mL
4 | YU100-F02 (antibody) EVQLVESGGGVVQPGRSLRLSCAASGFTFSSYGMHWVRQAPGKGLEWVAVISYDGSNKYYADSVKGRFTISRDNSKNTLYLQMNSLRAEDTAVYYCAKIGATDPLDYWGQGTLVTVSSGSASAPKLEEGEFSEARVQSALTQPRSVSGSPGQSVTISCTGTSSDVGGYNYVSWYQQHPGKAPKLMIYDVTKRPSGVPDRFSGSKSGNTASLTISGLQADDEADYYCCSYAGSYTWIFGGGTKLTVL | 51.2 ng/mL | 43.5 ng/mL | 0.361 | 0.303 | 0.018 µg/mL
5 | YU100-G01 (antibody) QVQLVQSGGGVVQPGRSLRLSCAASGFTFSSYGMHWVRQAPGKGLEWVAVISYDGSNKYYADSVKGRFTISRDNSKNTLYLQMNSLRAEDTAVYYCAKIGATDPLDYWGQGTLVTVSSGSASAPKLEEGEFSEARVQSALTQPRSVSASPGQSVTISCTGTSSDVGAYNYVSWYQQHPGKAPKLMLYDVNKRPSGVPDRFSGSKSGNTASLTISRLQAEDEADYYCCSYAGSYTWVFGGGTKLTVL | 56.6 ng/mL | 49.7 ng/mL | 0.205 | 0.31 | 0.019 µg/mL
6 | YU100-G07 (antibody) QVQLVESGGGVVQPGRSLRLSCAASGFTFSSYGMHWVRQAPGKGLEWVAVISYDGSNKYYADSVKGRFTISRDNSKNTLYLQMNSLRAEDTAVYYCAKIGATDPLDYWGQGTLVTVSSGSASAPKLEEGEFSEARVQSALTQPASVSGSPGQSITISCTGTSSDVGAYDYVSWYQQHPGKAPKLMIYDVTNRPSGVSNRFSGSKSGNTASLTISGLQAEDEADYYCASYTRSSVWVFGGGTKLTVL | 59 ng/mL | 49.7 ng/mL | 0.203 | 0.206 | 0.018 µg/mL
7 | YU100-G09 (antibody) EVQLVESGGGVVQPGRSLRLSCAASGFTFSSYGMHWVRQAPGKGLEWVAVISYDGSNKYYADSVKGRFTISRDNSKNTLYLQMNSLRAEDTAVYYCAKIGATDPLDYWGQGTLVTVSSGSASAPKLEEGEFSEARVQSALTQPRSVSGSPGQSVTISCTGTISDVGGYNYVSWYQQHPGKAPKLMIYDVTKRPSGVPDRFSGSKSGNTASLTISGLQAEDEAGYYCSSYAGSYTWVFGGGTKLTVL | 59.9 ng/mL | 47.5 ng/mL | 0.802 | 0.985 | 0.014 µg/mL
8 | YU100-H02 (antibody) QVQLQQSGGGVVQPGRSLRLSCAASGFTFSSYGMHWVRQAPGKGLEWVAVISYDGSNKYYADSVKGRFTISRDNSKNTLYLQMNSLRAEDTAVYYCARIMGYDYGDYDVVDYWGQGTLVTVSSGSASAPKLEEGEFSEARVQSALTQPRSVSRSPGQSVTISCTGTSSDVGTYNYVSWYQQHPGKAPKLMIYDVSKRPSGVPDRFSGSKSGNTASLTISGLQAEDEADYYCCSYAGFYTWVFGGGTKLTVL | 57.5 ng/mL | 51.3 ng/mL | 0.309 | 0.188 | 0.032 µg/mL

Other lines, results leading:

Row | MMP2 production, Experiment 1 (human atrial fibroblasts + TGFB1) (Human IL-11 [1]) | MMP2 production, Experiment 2 (human atrial fibroblasts + TGFB1) (Human IL-11 [1]) | hIL11 - average signal (Human IL-11 [2]) | mIL11 - average signal (Mouse IL-11) | EC50 (Human IL-11 [3]) | Binder
9 | 58.5 ng/mL | 48.7 ng/mL | 0.508 | 0.393 | 0.027 µg/mL | YU100-H04 (antibody) QVQLVESGGGVVQPGRSLRLSCAASGFTFSSYAMHWVRQAPGKGLEWVAVISYDGSNKYYADSVKGRFTISRDNSKNTLYLQMNSLRAEDTAVYYCARIMGYDYGDYDVVDYWGQGTLVTVSSGSASAPKLEEGEFSEARVQSALTQPASVSGSPGQSITISCTGTSSDIGVYNYVSWYQQHPGKAPKLMIYDVSKRPSGVPDRFSGSKSGNTASLTISGLQAEDEADYYCCSYAGSYTWVFGGGTKLTVL
10 | 57.1 ng/mL | 47.8 ng/mL | 0.163 | 0.461 | 0.022 µg/mL | YU100-H05 (antibody) QVQLVESGGGVVQPGRSLRLSCAASGFTFSSYGMHWVRQAPGKGLEWVAVISYDGSNKYYADSVKGRFTISRDNSKNTLYLQMNSLRAEDTAVYYCAKIGATDPLDYWGQGTLVTVSSGSASAPKLEEGEFSEARVQAVLTQPRSVSGSPGQSITISCTGTGSNVGGYNYVSWYQQHPGQAPKLMIYDVSKRPSGVPDRFSGSKSGNTASLTISGLQAEDEADYYCCSYAGTYTWVFGGGTKLTVL
11 | 52.3 ng/mL | 43.9 ng/mL | 0.181 | 0.328 | 0.013 µg/mL | YU100-H06 (antibody) QVQLVESGGGVVQPGRSLRLSCAASGFTFSSYGMHWVRQAPGKGLEWVAVISYDGSNKYYADSVKGRFTISRDNSKNTLYLQMNSLRAEDTAVYYCAKIGATDPLDYWGQGTLVTVSSGSASAPKLEEGEFSEARIQSALTQPRSVSGSPGQSVTISCTGTSSDVGGYNYVSWYQQHPGKAPKLMIYDVTKRPSGVPDRFSGSKSGNTASLTISGLQAEDEADYYCSSYAGSYTWVFGGGTKLTVL
12 | 52.9 ng/mL | 39.6 ng/mL | 0.4 | 0.668 | 0.028 µg/mL | YU100-H09 (antibody) QVQLVQSGGGVVQPGRSLRLSCAASGFTFSSYAMHWVRQAPGKGLEWVAVISYDGSNKYYADSVKGRFTISRDNSKNTLYLQMNSLRAEDTAVYYCARIMGYDYGDYDVVDYWGQGTLVTVSSGSASAPKLEEGEFSEARVQSALTQPASVSGSPGQSITISCTGTSSDVGGYNYVSWYQQHPGKAPKLMIYDVSNRPSGVSNRFSGSKSGNTASLTISGLQAEDEADYYCCSYAGSYTWVFGGGTKLTVL
13 | 53.7 ng/mL | 45.5 ng/mL | 0.724 | 0.629 | 0.015 µg/mL | YU100-H11 (antibody) QVQLVQSGGGVVQPGRSLRLSCAASGFTFSSYGMHWVRQAPGKGLEWVAVISYDGSNKYYADSVKGRFTISRDNSKNTLYLQMNSLRAEDTAVYYCAKIGATDPLDYWGQGTLVTVSSGSASAPKLEEGEFSEARVQSALTQPASVSGSPGQSITISCTGTSSDVGGYNYVSWYQQHPGKAPKLMIYDVSNRPSGVSNRFSGSKSGNTASLTISGLQAEDEADYYCCSYAGSYTWVFGGGTKLTVL
